Laboratory results reported in patent publication US6391305B1, “Conjugates useful in the treatment of prostate cancer” (priority 1999, dated 2002).
Several values for one entry are separate records, joined by “and”; a condition that tells them apart may be missing. Equal entries are not always repeated. Where two headings read alike, the source gives them in different places. Marks after values point to notes of the source that are not given here. Non-standard residues stand in square brackets, D forms with d. Residues, ends and D or L forms follow the SMILES beside them. Primed or numbered codes have the meaning given here. *: point of attachment. PEG(1) = polyethylene glycol containing substituent with 1 ethyleneoxy subunit; X5 = (2R,3S)‑2,3,4‑trihydroxybutanoyl, O=C([C@H](O)[C@@H](O)CO)*; Decanoyl(3,6,9-trioxa) = COCCOCCOCC(=O)*; Glyceroyl(2S) = O=C([C@@H](O)CO)*; hArg = N=C(N)NCCCC[C@H](N)C(=O)O; 3Pal = N[C@@H](Cc1cccnc1)C(=O)O; Cha = N[C@@H](CC1CCCCC1)C(=O)O; Chg = N[C@H](C(=O)O)C1CCCCC1; Nle = CCCC[C@H](N)C(=O)O; PEG(15) = PEG(15): -; Glycolyl = O=C(CO)*

Biological target: T1, enzymatically active free PSA (Homo sapiens, UniProt P07288)
T1 construct: required for 50% cleavage of the noted oligopeptides with enzymatically active free PSA
Assay type: biochemical
Conditions: for Time to 50% Substrate Cleavage by York PSA (Min), values marked *: asterisk not explained in Table 2
Protocol: All other oligopeptides were tested as neutral compounds.

[1] = oligopeptide, PSA digestion buffer pH8.0, molar ratio to PSA 100 to 1

T1 sequence (P07288 25-261): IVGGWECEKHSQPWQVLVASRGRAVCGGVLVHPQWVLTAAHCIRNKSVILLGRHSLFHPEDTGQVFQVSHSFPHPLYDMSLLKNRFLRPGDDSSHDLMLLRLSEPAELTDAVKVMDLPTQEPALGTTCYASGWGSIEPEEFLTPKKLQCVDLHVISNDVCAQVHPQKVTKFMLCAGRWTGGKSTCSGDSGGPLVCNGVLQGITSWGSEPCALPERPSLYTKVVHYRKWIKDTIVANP

Compound	Time to 50% Substrate Cleavage by York PSA (Min), values marked * (oligopeptide)	Time to 50% Substrate Cleavage by York PSA [1]	Time to 50% Substrate Cleavage by York PSA (psa digestion buffer, pH 8) [min]
2(S)2,3-dihydroxypropionyl-hRSSChgQ-SL-acid: blocked oligopeptide with PSA cleavage site, Example 1 ({2(S)‑2,3‑dihydroxypropionyl}-[hArg]SS[Chg]QSL-OH)	25* Min		
2(S)-2,3-dihydroxy-propionyl ShRChgQSL-acid: blocked oligopeptide with PSA cleavage site, Example 1 ({2(S)‑2,3‑dihydroxypropionyl}-S[hArg][Chg]QSL-OH)	35* Min		
2,3-dihydroxypropionyl-GSSChgQ-SL-acid: blocked oligopeptide with PSA cleavage site, Example 1 ({2,3‑dihydroxypropionyl}-GSS[Chg]QSL-OH)		160 min	
2,3-dihydroxypropionyl-SSSChgQ-SL-acid: blocked oligopeptide with PSA cleavage site, Example 1 ({2,3‑dihydroxypropionyl}-SSS[Chg]QSL-OH)		120 min	
2,3-dihydroxypropionyl-ShRChgQ-SL-acid: blocked oligopeptide with PSA cleavage site, Example 1 ({2,3‑dihydroxypropionyl}-S[hArg][Chg]QSL-OH)		75 min	
2,3-dihydroxypropionyl-ShRYQ-SL-acid: blocked oligopeptide with PSA cleavage site, Example 1 ({2,3‑dihydroxypropionyl}-S[hArg]YQSL-OH)		35 min and 50 min	
2,3-dihydroxypropionyl-hRSSChgQ-SL-acid: blocked oligopeptide with PSA cleavage site, Example 1		50 min	
2,3-dihydroxypropionyl-hSSSChgQ-SL-acid: blocked oligopeptide with PSA cleavage site, Example 1 ({2,3‑dihydroxypropionyl}-[hS]SS[Chg]QSL-OH)		160 min	
2-hydroxyacetyl-SSChgQ-SL-acid: blocked oligopeptide with PSA cleavage site, Example 1 (Glycolyl-SS[Chg]QSL-OH)		180 min	
2-hydroxyacetyl-ShRChgQ-SL-acid: blocked oligopeptide with PSA cleavage site, Example 1 (Glycolyl-S[hArg][Chg]QSL-OH)	30 min	120 min	
2-hydroxyacetyl-hRASChgQ-SL-acid: blocked oligopeptide with PSA cleavage site, Example 1 (Glycolyl-[hArg]AS[Chg]QSL-OH; SMILES CC(C)C[C@H](NC(=O)[C@H](CO)NC(=O)[C@H](CCC(N)=O)NC(=O)[C@@H](NC(=O)[C@H](CO)NC(=O)[C@H](C)NC(=O)[C@H](CCCCNC(=N)N)NC(=O)CO)C1CCCCC1)C(=O)O)		70 min	
2-hydroxyacetyl-hRSSYQ-SNle-acid: blocked oligopeptide with PSA cleavage site, Example 1 (Glycolyl-[hArg]SSYQS[Nle]-OH)		45 min	
2-hydroxyacetylhRYQ-SL-acid: blocked oligopeptide with PSA cleavage site, Example 1 (Glycolyl-[hArg]YQSL-OH; SMILES CC(C)C[C@H](NC(=O)[C@H](CO)NC(=O)[C@H](CCC(N)=O)NC(=O)[C@H](Cc1ccc(O)cc1)NC(=O)[C@H](CCCCNC(=N)N)NC(=O)CO)C(=O)O)	105* Min		
CC(C)C[C@H](NC(=O)[C@H](CO)NC(=O)[C@H](CCC(N)=O)NC(=O)[C@H](Cc1ccc(O)cc1)NC(=O)[C@H](CO)NC(=O)[C@H](CO)NC(=O)[C@H](CCCCNC(=N)N)NC(=O)CO)C(=O)O [2-hydroxyacetyl-hRSSYQ-SL-acid] (Glycolyl-[hArg]SSYQSL-OH)			35
CCCC[C@H](NC(=O)[C@H](CO)NC(=O)[C@H](CCC(N)=O)NC(=O)[C@H](Cc1ccc(O)cc1)NC(=O)[C@H](CCCCNC(=N)N)NC(=O)[C@H](CO)NC(C)=O)C(=O)O [Ac-ShRYQ-SNle-acid] (Ac-S[hArg]YQS[Nle]-OH)			25
CCCC[C@H](NC(=O)[C@H](CO)NC(=O)[C@H](CCC(N)=O)NC(=O)[C@H](CC1CCCCC1)NC(=O)[C@H](CCCCNC(=N)N)NC(C)=O)C(=O)O [Ac-hR(CHA)Q-SNle-acid] (Ac-[hArg][Cha]QS[Nle]-OH)			200
CCCC[C@H](NC(=O)[C@H](CO)NC(=O)[C@H](CCC(N)=O)NC(=O)[C@H](Cc1ccc(O)cc1)NC(=O)[C@H](CO)NC(=O)[C@H](CO)NC(=O)[C@H](CCCCNC(=N)N)NC(C)=O)C(=O)O [Ac-hRSSYQ-SNle-acid] (Ac-[hArg]SSYQS[Nle]-OH)			25
(2R,3S) 2,3,4-trihydroxybutanoyl-ShRChgQ-SL-acid: blocked oligopeptide with PSA cleavage site, Example 1 (X5-S[hArg][Chg]QSL-OH)		90 min	

Compound	Time to 50% Substrate Cleavage by York PSA (Min), values marked * (oligopeptide)	Time to 50% Substrate Cleavage by York PSA [1]	Time to 50% Substrate Cleavage by York PSA (psa digestion buffer, pH 8) [min]
(OH-Ac)SSSChgQ-SL-acid: 2-hydroxyacetyl blocked oligopeptide with PSA cleavage site, Example 1; blocked peptide of Example 3 Step B (Glycolyl-SSS[Chg]QSL-OH)		120 min	
(d)2,3-dihydroxypropionyl-3PAL-SSChgQSL-acid: blocked oligopeptide with PSA cleavage site, Example 1 ({(d)‑2,3‑dihydroxypropionyl}-[3Pal]SS[Chg]QSL-OH)		80 min	
(l)2,3-dihydroxypropionyl-3PAL-SSChgQ-SL-acid: blocked oligopeptide with PSA cleavage site, Example 1 ({Glyceroyl(2S)}-[3Pal]SS[Chg]QSL-OH; SMILES CC(C)C[C@H](NC(=O)[C@H](CO)NC(=O)[C@H](CCC(N)=O)NC(=O)[C@@H](NC(=O)[C@H](CO)NC(=O)[C@H](CO)NC(=O)[C@H](Cc1cccnc1)NC(=O)[C@@H](O)CO)C1CCCCC1)C(=O)O)		70 min	
(l)2,3-dihydroxypropionyl-SSChgQ-SL-acid: blocked oligopeptide with PSA cleavage site, Example 1 ({Glyceroyl(2S)}-SS[Chg]QSL-OH)		180 min	
(l)2,3-dihydroxypropionyl-SSSChgQ-SL-acid: blocked oligopeptide with PSA cleavage site, Example 1 ({Glyceroyl(2S)}-SSS[Chg]QSL-OH)		80 min and 110 min	
Ac-ANKASYQ-SL-acid: blocked oligopeptide with PSA cleavage site, Example 1 (chain 1 Ac-ANKASYQSL-OH; chain 2 Ac-ANKASYQSL-OH)		135 min and 220 min	
Ac-hRASChgQ-SL-acid: blocked oligopeptide with PSA cleavage site, Example 1 (Ac-[hArg]AS[Chg]QSL-OH; SMILES CC(=O)N[C@@H](CCCCNC(=N)N)C(=O)N[C@@H](C)C(=O)N[C@@H](CO)C(=O)N[C@H](C(=O)N[C@@H](CCC(N)=O)C(=O)N[C@@H](CO)C(=O)N[C@@H](CC(C)C)C(=O)O)C1CCCCC1)		50 min	
AchRSSChgQ-SL-acid: blocked oligopeptide with PSA cleavage site, Example 1 (Ac-[hArg]SS[Chg]QSL-OH)	45 min	120 min	
PEG(1)-ShRChgQ-SL-acid: blocked oligopeptide with PSA cleavage site, Example 1 ({PEG(1)}-S[hArg][Chg]QSL-OH)	120* Min		
PEG(1)-ShRYQ-SL-acid: blocked oligopeptide with PSA cleavage site, Example 1 ({PEG(1)}-S[hArg]YQSL-OH)		90 min	
PEG(1)-hRSSChgQ-SL-acid: blocked oligopeptide with PSA cleavage site, Example 1 ({PEG(1)}-[hArg]SS[Chg]QSL-OH)		30 min	
PEG(2)-3PAL-SSChgQ-SL-acid: blocked oligopeptide with PSA cleavage site, Example 1 ({Decanoyl(3,6,9-trioxa)}-[3Pal]SS[Chg]QSL-OH; SMILES COCCOCCOCC(=O)N[C@@H](Cc1cccnc1)C(=O)N[C@@H](CO)C(=O)N[C@@H](CO)C(=O)N[C@H](C(=O)N[C@@H](CCC(N)=O)C(=O)N[C@@H](CO)C(=O)N[C@@H](CC(C)C)C(=O)O)C1CCCCC1)		80 min	
PEG(2)-S-hRChgQ-SL-acid: blocked oligopeptide with PSA cleavage site, Example 1 ({Decanoyl(3,6,9-trioxa)}-S[hArg][Chg]QSL-OH)		30 min	
PEG(2)-ShRYQ-SL-acid: blocked oligopeptide with PSA cleavage site, Example 1 ({Decanoyl(3,6,9-trioxa)}-S[hArg]YQSL-OH)	35* Min		
PEG(2)-hRSSChgQ-SL-acid: blocked oligopeptide with PSA cleavage site, Example 1 ({Decanoyl(3,6,9-trioxa)}-[hArg]SS[Chg]QSL-OH)	40* Min		
PEG(2)SSSChgQ-SL-acid: blocked oligopeptide with PSA cleavage site, Example 1 ({Decanoyl(3,6,9-trioxa)}-SSS[Chg]QSL-OH)		150 min	
PEG(14)ShRYQ-SL-acid: blocked oligopeptide with PSA cleavage site, Example 1 ({PEG(14)}-S[hArg]YQSL-OH)		40 min	
PEG(15)-ShRYQ-SL-acid: blocked oligopeptide with PSA cleavage site, Example 1 ({PEG(15)}-S[hArg]YQSL-OH)		40 min	
